Measurements as given in paper PMC7156819.

Molecular target: FOXM1 (Forkhead box M1) (UniProt Q08050)
Assay: GST pull-down with purified proteins
Conditions: reference: GST-ZNF148 WT without ERK; sites S306

## ZNF148 (ZBP‐89) (from UniProt Q9UQR1) GST-ZNF148 WT pre-incubated with active ERK
  binding against the reference: stronger
